Laboratory results: the supplement of paper PMC9170038

Assays:
[1] = tested on: MS2 coat protein; assay: apparent KD of MS2 coat protein, switch OFF state (with FMN for OFF switches, without FMN for ON switches); designed switch direction (-1 OFF switch, 1 ON switch): -1; higher = weaker reporter binding; conditions: FMN input: 0 or 200 uM; Eterna round: R93 (includes R88 designs)
Outline: (§1)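 Apparent KD is reported per design as the median of normalised binding-curve fits across its clusters. The RNA switches were made by on-chip transcription from Illumina sequencing clusters. SNAP-549-labelled MS2 coat protein was then added in twofold steps (0.7 or 1.5 nM to 3 µM; 0.8–1.5 h to 10–20 min per step) in 100 mM Tris-HCl pH 7.5, 80 mM KCl, 4 mM MgCl2, without or with constant ligand.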

[2] = tested on: MS2 coat protein; assay: apparent KD of MS2 coat protein, switch ON state; designed switch direction (-1 OFF switch, 1 ON switch): -1; higher = weaker reporter binding; conditions: FMN input: 0 or 200 uM; Eterna round: R93 (includes R88 designs)
Outline: as §1

Sequence	apparent KD of MS2 coat protein [1] [µM]	apparent KD of MS2 coat protein [2] [µM]
AGUCAUACAGGAUAUACAUGAGGAUCACCCAUGUUUAUCCUAAAAAAAUAAAAAACAUGUAGAAGGGUAUGACA [EX3 216: Super Stable 16]	0.0137	0.0129
AGUGAGUCAGGAUAUUCGUGAAGAAUAAAAGAAAUAACAACGAAGAAGGGACAUGAGGAUCACCCAUGUACACA [May 57]	0.025	0.0336
AGUGAGUGAGGAUAUCACUGAACAACAAAACAAAUAACGAGUGAGAAGGCACAUGAGGAUCACCCAUGUACACA [May 67]	0.0192	0.0234
AGUUGGCGAGGAUAUACAUGAGGAUCACCCAUGUGAAAAAAAAAAGUGAGAAAGAAAAGUAGAAGGCGCUGACA [Mat - Exclusion 3 - Lego mod - D89]	0.152	0.0351
AGUUGGCGAGGAUAUACAUGAGGAUCACCCAUGUGAGAGAAAAAAAGGAAAAAAAAAAGUAGAAGGCGCUGACA [Mat - Exclusion 3 - Lego mod - D44]	0.0691	0.043
AGUUGGCGAGGAUAUACAUGAGGAUCACCCAUGUGAGAGAAAAAAAGGAGAAAAAAAAGUAGAAGGCGCUGACA [Ruth Fulton Benedict]	0.123	0.0423
AGUUGGCGAGGAUAUACAUGAGGAUCACCCAUGUGAGAGAAAAAAGUGAGAAAGAAAAGUAGAAGGCGCUGACA [Norbert Elias]	0.202	0.0492
AGUUGGCGAGGAUAUACAUGAGGAUCACCCAUGUGAGAGAAAAAAGUGAGAAAGAAAAGUAGAAGGCGCUGACA [salish99-ex3-05]	0.202	0.0492
AGUUGGCGAGGAUAUACAUGAGGAUCACCCAUGUGAGAGUAAGAAGUGAGAAAGAGAAGUAGAAGGCGCUAACA [Ruby 54]	0.284	0.0484
AGUUUGUCAGGAUAUGCGUGAAGAAUAAAACAAAUAACAACGCAGAAGGGACAUGAGGAUCACCCAUGUAAACA [May 54]	0.0581	0.0513
AUAAAACAUGAGGAUCACCCAUGUGAGGAUAUGCGAAACAAAGAAACAAACAAACAAAGCAGAAGGCACAAUAA [Amethyst 7]	0.0392	0.0242
AUAAAGUCAGGAUAUGUAAAAAUAACGAAAGUUAUAAAUAAACAGAAGGGACAUGAGGAUCACCCAUGUAAAAU [Meechl MS2 Ex4]	0.0412	0.047
AUAGUACAUGAGGAUCACCCAUGUCAGGAUAUCGGAUAUGACAUGAAAAAAAUGUUAAUGAGAAGGGACUAUAA [EX1 Malc#18 Mod 1 - Jieux - Exclusion 1]	0.0636	0.0529
AUAGUACAUGAGGAUCACCCAUGUCAGGAUAUUCGAAAUGAAAAAAAAAAAAAAUGAAGGAGAAGGGACUAUAA [EX1 Malc#11]	0.072	0.0747
AUGAGAGCAGGAUAUGCAGGUGAGCCGGAAGAAAGAAGAAGACAUGAGGAUCACCCAUGUAGAAGGGCUAGCCC [Madiesxe]	0.0387	0.0419
CACGUACAUGAGGAUCACCCAUGUUAGGAUAUGCCGGGUAAGAGAAAACUAAAAAUCAGCAGAAGGGACGAAAC [Bilbo Confounded 16 - Jieux - Exclusion 1]	0.0323	0.0367
CAGUACUGAGGAUAUACAUGAGGAUCACCCAUGUAUCCAAGCUAGGAAACUAGCAAAAGUAGAAGGCAGUACUG [Ex3: 820]	0.0655	0.0132
CAGUACUGAGGAUAUACAUGAGGAUCACCCAUGUAUCCUAGCUAGGAAACUAGCAAAUGUAGAAGGCAGUACUG [Ex3: 818]	0.503	0.0476
CAGUGACAUGAGGAUCACCCAUGUUAGGAUAUGCGUGUUAGAAAAAAAAAGUUAAUAAGCAGAAGGAACAGUGG [JR_Exc001_Sub311]	0.0616	0.0408
CGAAUGUAAGGAUAUAGCCACAUUACGAAUAAGUAGUGUGGCUAGAAGGUACAUGAGGAUCACCCAUGUAUGGG [Exclusion 4.5 (AU closing FMN)]	0.0517	0.181
CUCAAGUUAGGAUAUCAAAGAAAAGAAGAGAAAGAAAAGAAUGAGAAGGAACAUGAGGAUCACCCAUGUAAGAA [EteRNA is fun!]	0.0224	0.0334
CUCAAGUUAGGAUAUCGAAGAAAAGAAGAGAAAGAAAAGAACGAGAAGGAACAUGAGGAUCACCCAUGUAAGAA [EteRNA is fun!]	0.0217	0.0118

Sequence	apparent KD of MS2 coat protein [1] [µM]	apparent KD of MS2 coat protein [2] [µM]
CUCAUGUCAGGAUAUCAGUAGUAAAAAAAAAAAAUUACUACUGAGAAGGGACAUGAGGAUCACCCAUGUCCAUU [EX4 304: Super Stable 4]	0.0369	0.053
CUCAUGUCAGGAUAUGUAGCAUGAUACGAAAGUAUCAUGCUACAGAAGGGACAUGAGGAUCACCCAUGUAAAAA [Ex4: 942]	0.0339	0.0202
CUCAUGUGAGGAUAUCAGUAGUAAAAAAAUAAAAUUACUACUGAGAAGGCACAUGAGGAUCACCCAUGUGAAAA [EX4 339: Super Stable 39]	0.0161	0.0274
CUCAUGUGAGGAUAUCAGUAGUAAAAAAAUAAAAUUACUACUGAGAAGGCACAUGAGGAUCACCCAUGUGUCUU [EX4 331: Super Stable 31]	0.0272	0.0458
CUCUAGUCAGGAUAUCGAAGAAAAGAAGAGAAAGAAAAGAACGAGAAGGGACAUGAGGAUCACCCAUGUAAGAA [EteRNA is fun!]	0.0392	0.05
CUCUUGUCAGGAUAUGGAAGAAAAGAAAAGAAAGAAAAGAACCAGAAGGGACAUGAGGAUCACCCAUGUAAGAA [EteRNA is fun!]	0.0377	0.156
CUCUUGUCAGGAUAUGUAAGAAAAGAAAAGAAAGAAAAGAAACAGAAGGGACAUGAGGAUCACCCAUGUAAGAA [EteRNA is fun!]	0.0531	0.0789
CUCUUGUGAGGAUAUCAAAGAAAAGAAAAGAAAGAAAAGAAUGAGAAGGCACAUGAGGAUCACCCAUGUAAGAA [EteRNA is fun!]	0.0595	0.0364
CUUAAGUGAGGAUAUCAGUAGUAAAAAAAUAAAAUUACUACUGAGAAGGCACAUGAGGAUCACCCAUGUUCCAA [EX4 341: Super Stable 41]	0.0381	0.0297
CUUAUGUGAGGAUAUGUACAGAAAAAACUGGGUGUAACUGUACAGAAGGCACAUGAGGAUCACCCAUGUAAAAA [EX4 387: S S Pseudoknot 12]	0.031	0.0364
GAAAAACAUGAGGAUCACCCAUGUCAGGAUAUCGAAAAAUAAAUAAAAAUAAAAUAAACGAGAAGGGACAAAAG [Mat - Same state - Mayanna Mod - D111]	0.0611	0.0502
GAAAAAGGAGGAUAUACGUACAUGUCAAAAGACGUGAAGGGACAUGAGGAUCACCCAUGUAGAAGGCUUAAAAG [Mat - Exclusion 2 - JL mod - D95]	0.0214	0.0594
GAAAAGUCAGGAUAUGCAGAUAAAAAAACGAAAAAAAAUCUGCAGAAGGGACAUGAGGAUCACCCAUGUAAAAG [Mat - Exclusion 4 - Mayanna - D110]	0.0542	0.0663
GAAAAGUGAGGAUAUACAGAUAAAAAAACGAAAAAAAAUCUGUAGAAGGCACAUGAGGAUCACCCAUGUAAAAG [Mat - Exclusion 4 - Mayanna - D107]	0.0366	0.036
GAAAAGUGAGGAUAUUCGGAUAGGAAAACGAAAACCUAUCCGAAGAAGGCACAUGAGGAUCACCCAUGUGAAAA [Mat - Exaclusion 4 - Eli mod - D44]	0.0268	0.0224
GAAAAGUUAGGAUAUACAGAUAAAAAAACGAAAAAAAAUCUGUAGAAGGAACAUGAGGAUCACCCAUGUAAAAA [Mat - Exclusion 4 - Mayanna - D104]	0.0155	0.0307
GAAAAUUGAGGAUAUACGAACAUGUCAAAAGACGUGAAGGGACAUGAGGAUCACCCAUGUAGAAGGCGAAAGAG [Mat - Exclusion 2 - JL mod - D92]	0.0141	0.0586
GAAAGGGCAGGAUAUGCAGAGAGAAAAAAAAAAAAAAAAAAACAUGAGGAUCACCCAUGUAGAAGGGCCGAAAG [salish99-ex2-03]	0.0481	0.0347
GAAGAACAUGAGGAUCACCCAUGUCAGGAUAUGCGGAAGGGAAUAAUAACUUCCGGAAGCAGAAGGGACAAGAA [Ex 1 May 49]	0.06	0.0323
GAAGUACGAGGAUAUACAUAGAUACAGAUACAUGUAGACGUACAUGAGGAUCACCCAUGUAGAAGGCGUACAAG [Mat - Same state - Mayanna Mod - D117]	0.129	0.137
GACCAGUGAGGAUAUGUAAAAAAAAGAGAAGAGAAGAGAGAACAGAAGGCACAUGAGGAUCACCCAUGUAGGGA [Default title]	0.17	0.143
GAGAAUGAAGGAUAUACAUGAGGAUCACCCAUGUAAGAGAAAGAGGGAAAAGAGAAAAGUAGAAGGUCAAAGAG [Ruby 73]	0.026	0.0238
